Results reported in US20230212304A1 (BIOSION, published 2023).
Values belong to the binder of their own block, whether it stands above or below them.

Experiments:
[1] = biological target: T1, recombinant human CTLA4-his protein (Acro biosystems, Cat#CT4-H5229) (human, UniProt P16410 37-162); assay: SPR, Biacore T200; antibody captured, CTLA4-his as analyte
T1 construct: bought recombinant protein; not shown: his tag
T1 sequence (looked up): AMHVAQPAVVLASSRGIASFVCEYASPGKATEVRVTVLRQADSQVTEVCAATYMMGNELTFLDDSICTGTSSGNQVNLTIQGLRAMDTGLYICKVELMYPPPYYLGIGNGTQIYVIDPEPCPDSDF
Method: (§1) Un-reacted moieties on the biosensor surface were blocked with ethanolamine. […] The antigen-antibody association kinetics was followed for 2 minutes and the dissociation kinetics was followed for 10 minutes. The association and dissociation curves were fit to a 1:1 Langmuir binding model using BIAcore evaluation software.

[2] = biological target: T2, cynomolgus monkey CTLA4-his protein (Acro biosystems, Cat#CT4-C5227) (cynomolgus monkey, UniProt G7PL88 36-161); assay: as above
T2 construct: bought recombinant protein; also called Cynomolgus CTLA4-his; not shown: his tag
T2 sequence: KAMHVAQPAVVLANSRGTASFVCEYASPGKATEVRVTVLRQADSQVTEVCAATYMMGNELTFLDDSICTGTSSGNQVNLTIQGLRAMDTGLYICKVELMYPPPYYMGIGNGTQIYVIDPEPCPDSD
Method: as §1

[3] = biological target: T3, recombinant human CTLA4 protein with human IgG1 Fc tag at the C-terminus (Acro biosystems, Cat#CT4-H5255) (human, UniProt P16410 37-162); assay: competitive ELISA: antibody pre-mixed with biotin human CTLA4-Fc (65 ng/ml), added to plate coated with the benchmark; competitor: coated Yervoy
T3 construct: bought protein; also called human CTLA4-Fc; CTLA4-Fc; not shown: human IgG1 Fc tag at the C-terminus
T3 sequence (looked up): T1 sequence (looked up)
Method: Plates were washed once with wash buffer, blocked with 200 µl PBST with 5% w/v non-fatty milk, incubated for 2 hours at 37° C., and washed 4 times.
After incubation at 37° C. for 40 minutes, plates were washed 4 times again using wash buffer. Then the plates were added and incubated with 100 µl/well streptavidin conjugated HRP (1:10000 dilution in PBST, Jackson Immuno Research, Cat#016-030-084, 100 µl/well) for 40 minutes at 37° C. Plates were finally washed using wash buffer. Finally, TMB was added and the reaction was stopped using 1M H₂SO₄, and the absorbance of the each well was read on a microplate reader using dual wavelength mode with 450 nm for TMB and 630 nm as the reference wavelength, then the OD (450-630) values were plotted against antibody concentration. Data was analyzed using Graphpad Prism software and IC₅₀ values were reported.

[4] = biological target: T3, recombinant human CTLA4 protein with …; assay: cell-based or functional assay
[5] = biological target: T3, recombinant human CTLA4 protein with …; assay: capture ELISA: antibody captured on coated plate (anti-human IgG Fc for the chimeric antibodies), biotin human CTLA4-Fc, streptavidin-HRP, OD(450-630)
Method: (§2) Plates were washed once with wash buffer (PBS+0.05% v/v Tween-20, PBST) and then blocked with 200 µl/well blocking buffer (PBST with 5% w/v non-fatty milk) for 2 hours at 37° C. […] After a final wash, plates were incubated with 100 µl/well substrate TMB (Innoreagents, Cat#TMB-S-002). The reaction was stopped in 15 minutes at room temperature with 50 µl/well 1M H₂SO₄, and the absorbance of the each well was read on a microplate reader using dual wavelength mode with 450 nm for TMB and 630 nm as the reference wavelength, then the OD (450-630) values were plotted against antibody concentration. Data was analyzed using Graphpad Prism software and EC₅₀ values were reported.
For the capture ELISA, AffiniPure Goat Anti-Human IgG, Fcy fragment specific (Jackson Immuno Research, Cat#109-005-008) was used instead of AffiniPure Goat Anti-Mouse IgG, F(ab′)₂ fragment specific, 100 µl/well.

[6] = biological target: T3, recombinant human CTLA4 protein with …; assay: capture ELISA: antibody captured on anti-mouse IgG F(ab')2 coated plate, biotin human CTLA4-Fc 26 ng/ml, streptavidin-HRP, OD(450-630)
Method: as §2

[7] = biological target: T3, recombinant human CTLA4 protein with …; assay: cell based blocking FACS: antibody pre-mixed with human CTLA4-Fc, added to Daudi cells; blocked ligands: cell surface CD80/CD86
[8] = biological target: T3, recombinant human CTLA4 protein with …; assay: cell based blocking FACS: antibody pre-mixed with human CTLA4-Fc (1 ug/mL), added to Daudi cells; blocked ligands: cell surface CD80/CD86
Method: Daudi cells were harvested from cell culture flasks at the log phase, washed twice and re-suspended in PBS containing 2% v/v Fetal Bovine Serum (FACS buffer). […] Cells were washed twice and re-suspended in FACS buffer. Fluorescence was measured using a Becton Dickinson FACS Canto II-HTS equipment. Data was analyzed using Graphpad Prism software and IC₅₀ values were reported.

[9] = biological target: T1, recombinant human CTLA4-his protein …; assay: BLI, Octet RED96; antibody on AHC sensor, CTLA4-his as analyte
Method: Briefly, AHC biosensors (anti-human IgG Fc capture, from ForteBio) were presoaked with 10 mM glycine (pH 1.5) for 3 seconds, and then dipped in a well with running buffer (0.5% w/v BSA in PBST) for 3 seconds, the soaking and dipping steps were repeated for three times. […] A new baseline was run for 180 seconds in another well with running buffer. […] Finally, sensors were presoaked with 10 mM glycine (pH 1.5) for 3 seconds, and then were dipped in a well with running buffer for 3 seconds, the soaking and dipping steps repeated for three times. The association and dissociation curves were fit to a 1:1 Langmuir binding model using ForteBio Data Analysis 8.1.

Kd [1]: 7.45 nM
koff [1]: 0.000487 s⁻¹
kon [1]: 65400 M⁻¹ s⁻¹
Kd [2]: 4.12 nM
koff [2]: 0.000787 s⁻¹
kon [2]: 191000 M⁻¹ s⁻¹
IC50 [3]: 0.618 nM
EC50 of IL-2 release (GS-J1 T cells + GS-C1/CD80 cells + human CTLA4-Fc, IL-2 HTRF) [4]: 36.6 nM
EC50 [5]: 0.418 nM
EC50 [6]: 0.116 nM
IC50 [7]: 8.09 nM
IC50 [8]: ~4.6 nM
B1: mouse anti-CTLA4 monoclonal antibody D1B6 (antibody, V domains shown)
VH: EVQLQQSGPELVKPGASVKLSCKASGNTFTTYVLNWVKQKPGQGLEWIGYFNPYNDGIKYNEKFKGKATLTSDKSSNTAYMELSSLTSEDSAVYYCARFEGGGYAMDYWGQGTSVTVSS
VL: DIVLTQSPASLAVSLGQRATISCRASQSVGTSRNTYIHWYQQKLGQPPKLLIKYASDLESGVPARFSGSGSGTDFTLNIHPVEEEDTATYYCQHSWEIPYTFGGGTKLEIK
notes: mouse mAb purified from hybridoma supernatant

Kd [9]: 148 nM
koff [9]: 0.00076 s⁻¹
kon [9]: 5140 M⁻¹ s⁻¹
EC50 [5]: 0.514 nM
IC50 [7]: ~6.6 nM
B2: chimeric D1B6 anti-CTLA4 antibody (antibody, human IgG4 S228P, kappa, V domains shown)
VH: B1 VH
VL: DIVLTQSPASLAVSLGQRATISCRASQSVGTSRNTYIHWYQQKLGQPPKLLIKYASDLESGVPARFSGSGSGTDFTLNIHPVEEEDTATYYCQHSWEIPYTFGGGTKLEIKR
notes: mouse variable domains on human IgG4/kappa, made in 293F cells

Kd [1]: 1.77 nM
koff [1]: 0.000513 s⁻¹
kon [1]: 290000 M⁻¹ s⁻¹
Kd [2]: 1.71 nM
koff [2]: 0.00077 s⁻¹
kon [2]: 451000 M⁻¹ s⁻¹
IC50 [3]: 0.865 nM
EC50 of IL-2 release (GS-J1 T cells + GS-C1/CD80 cells + human CTLA4-Fc, IL-2 HTRF) [4]: 35.3 nM
EC50 [5]: 0.832 nM
EC50 [6]: 0.134 nM
IC50 [7]: 10.6 nM
IC50 [8]: 11 nM
B3: mouse anti-CTLA4 monoclonal antibody C1G4 (antibody, V domains shown)
VH: EVKLDETGGGLVQPGRPIKLSCVASGFTFSDNWMNWVRQSPEKGLEWVAQIRNKPYNYETYYSDSVKGRFTISRDDSKSSVYLQMNNLRTKDMGIYYCTGGFTYWGQGTLVTVSA
VL: DIQMTQSPPSLSASVGETVTITCGASENIYGGLNWYQRKQGKSPQLLIYGATNLADGMSSRFSGSGSGRQYSLKISRLHPDDVATYYCQNVLNTPYTFGGGTKLEIK
notes: as for B1

Kd [9]: 1 nM
koff [9]: 0.000679 s⁻¹
kon [9]: 676000 M⁻¹ s⁻¹
EC50 [5]: 0.869 nM
IC50 [7]: 10.2 nM
B4: chimeric C1G4 anti-CTLA4 antibody (antibody, human IgG4 S228P, kappa, V domains shown)
VH: B3 VH
VL: DIQMTQSPPSLSASVGETVTITCGASENIYGGLNWYQRKQGKSPQLLIYGATNLADGMSSRFSGSGSGRQYSLKISRLHPDDVATYYCQNVLNTPYTFGGGTKLEIKR
notes: as for B2

Kd [1]: 0.925 nM
koff [1]: 0.000321 s⁻¹
kon [1]: 346000 M⁻¹ s⁻¹
Kd [2]: 0.727 nM
koff [2]: 0.000422 s⁻¹
kon [2]: 580000 M⁻¹ s⁻¹
IC50 (read off the curve) [3]: ~2 nM
EC50 of IL-2 release (GS-J1 T cells + GS-C1/CD80 cells + human CTLA4-Fc, IL-2 HTRF) [4]: ~40.8 nM
EC50 [6]: 0.108 nM
IC50 [8]: ~8.85 nM
B5: mouse anti-CTLA4 monoclonal antibody D1H4 (antibody, V domains shown)
VH: EVQLQQSGPVLVKPGASVKMSCKASGYTFTDYYMNWVKQSHGKSLEWIGAINPDHGGSSYNQKFKGKATLTVDKSSSTAYMELNSLTSEDSAVYYCARDGSIHYVMDDWGQGTSVTVSS
VL: DIVMSQSPSSLTVSAGDKVTMSCKSSQSLLHSGNQKNYLAWYQQKPWQPPKLLIYGASTRESGVPDRFTGSGSGTDFTLTISSVQAEDLAVYYCQNDYGYPYTFGGGTKLEIK
notes: as for B1
